Assay results as given in publication PMC5056641.

Target: His-CLK1(ΔN) (mouse)
Assay: kinetic competition

Chain of SRSF1 (His-tagged) (Q07955 whole entry): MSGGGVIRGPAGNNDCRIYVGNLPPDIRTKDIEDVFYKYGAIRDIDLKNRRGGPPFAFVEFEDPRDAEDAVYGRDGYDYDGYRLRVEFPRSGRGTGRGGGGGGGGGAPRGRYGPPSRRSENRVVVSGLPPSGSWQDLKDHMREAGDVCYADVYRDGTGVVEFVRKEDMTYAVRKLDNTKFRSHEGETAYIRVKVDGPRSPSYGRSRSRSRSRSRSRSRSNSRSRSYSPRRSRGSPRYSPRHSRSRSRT

SRSF1 (His-tagged) (from UniProt Q07955 1-248) (natural protein)
Ki: 300 nM
